Experimental data from patent publication US9353421, “Aptamers that are specific for immunoglobulin-binding cell wall proteins” (Helmholtz-Zentrum für Umweltforschung GmbH-UFZ).

Columns and labels:
Protein A (recombinant) = Protein A (recombinant) (UniProt P02976 P02976:37-485); test: SPR; steady-state avidity (bivalent analyte); 100 mM NaCl, 20 mM Tris-HCl pH 7.6, 10 mM MgCl2, 5 mM KCl, 1 mM CaCl2, 0.005% SP20; conditions: tags: Sigma-Aldrich P7837; label: 3'-biotin
Description: (§1) These changes are emitted as a measurable signal, expressed in resonance units (RU), and are proportional to the amount of target bound on the sensor surface. In the experiments presented here, non-specific ssDNA (SELEX library, 3'-biotinylated) was immobilized in the reference cell and ssDNA of the aptamer PA#2/8 (3'-biotinylated) was immobilized in the measurement cell. The target solution, comprising recombinant protein A (P7837, Sigma-Aldrich, Germany) or native protein A (P3838, Sigma-Aldrich, Germany) in binding buffer (100 mM NaCl, 20 mM Tris-HCl, pH 7.6, 10 mM MgCl_2, 5 mM KCl, 1 mM CaCl_2) with 0.005% SP20, was passed over the prepared sensor surfaces at a flow rate of 10 µl/min. […] The sensorgrams (FIG. 6, 8) show the double-referenced signal curve (measurement cell minus reference cell and buffer reference) during the binding and dissociation phase at different target concentrations in a range of 10 nM-5,000 nM protein A. During such a measurement series the 1,000 nM concentration of protein A was measured 3 times as a control. […]
(§2) From the binding data at the end of each binding phase with the different protein A concentrations a saturation curve was plotted (FIG. 7, 9) and the steady state affinity of the aptamer PA#2/8 for protein A was calculated from this. […]

Protein A (native) = Protein A (native) (UniProt P02976 P02976:37-485); test: as above; conditions: tags: Sigma-Aldrich P3838; label: 3'-biotin
Description: as §1, §2

[1] = target: T1, Protein A (native, biotinylated) (Staphylococcus aureus, UniProt P02976 P02976:37-485); test: pulldown; magnetic bead binding; retained and even improved vs full length; 10 mM MgCl2, 21 C; conditions: tags: biotin, immobilized on streptavidin Dynabeads M-280; Sigma-Aldrich P2165; label: fluorescein
Procedure: (§3) The binding experiments were carried out under the SELEX conditions. 2.5-3 ×10^7 target-modified magnetic beads and ~55 pmol of fluorescein-labeled aptamer ssDNA in binding buffer (100 mM NaCl, 20 mM Tris-HCl, pH 7.6, 10 mM MgCl_2, 5 mM KCl, 1 mM CaCl_2) were employed for each experiment. The target-modified magnetic beads were prepared as a preliminary to the binding experiments, wherein Dynabeads® M-280 Streptavidin (Invitrogen, UK) were used in order to immobilize native, biotinylated protein A from *Staphylococcus aureus* (P2165, Sigma-Aldrich, Germany). Before each binding reaction the target-modified magnetic beads were washed several times in binding buffer and the aptamer ssDNA was thermally equilibrated by incubation at 90° C. for 8 min, on ice for 10 min and then converted to RT for ~5 min. The prepared aptamer ssDNA and the washed target-modified magnetic beads were then brought together for binding and incubated for 30 min at 21° C., while shaking. The non-bound ssDNA was removed and the binding complexes were washed several times in binding buffer. Thereafter, the target-bound ssDNA was eluted by means of heat by incubation of the binding complexes in binding buffer at 95° C. for 10 min, while shaking. […] The amount of ssDNA eluted could be quantified on the basis of the fluorescein labeling of the aptamer ssDNA and by means of a calibration curve. […]

[2] = target: T1, Protein A (native, biotinylated); test: pulldown; magnetic bead binding; complete loss of binding; 10 mM MgCl2, 21 C; conditions: tags: biotin, immobilized on streptavidin Dynabeads M-280; Sigma-Aldrich P2165; label: fluorescein
Procedure: as §3

[3] = target: T1, Protein A (native, biotinylated); test: pulldown; magnetic bead binding; negative result; 10 mM MgCl2, 21 C; conditions: tags: biotin, immobilized on streptavidin Dynabeads M-280; Sigma-Aldrich P2165; label: fluorescein
Procedure: as §3

T1 sequence (P02976 37-485, one chain of several): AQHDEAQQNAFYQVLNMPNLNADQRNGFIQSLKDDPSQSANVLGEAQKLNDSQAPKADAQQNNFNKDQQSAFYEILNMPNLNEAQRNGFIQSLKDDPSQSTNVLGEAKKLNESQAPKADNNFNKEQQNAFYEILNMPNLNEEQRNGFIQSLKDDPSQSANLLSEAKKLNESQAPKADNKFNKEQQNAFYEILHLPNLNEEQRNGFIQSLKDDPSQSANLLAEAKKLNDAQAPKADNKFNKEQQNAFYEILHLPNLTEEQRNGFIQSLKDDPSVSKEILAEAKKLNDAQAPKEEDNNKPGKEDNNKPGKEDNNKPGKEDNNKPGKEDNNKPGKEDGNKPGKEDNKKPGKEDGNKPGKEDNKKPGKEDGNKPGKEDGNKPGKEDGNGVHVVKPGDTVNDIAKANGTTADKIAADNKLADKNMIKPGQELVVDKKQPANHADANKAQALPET
Sequence of Protein A (recombinant) (P02976 37-485, one chain of several): as above
Sequence of Protein A (native) (P02976 37-485, one chain of several): as above

B1: PA#2/8 (3'-biotin) (ssDNA)
DNA: ATACCAGCTTATTCAATTAGCAACATGAGGGGGATAGAGGGGGTGGGTTCTCTCGGCTACAATCGTAATCAGTTAG
- Kd (Protein A (recombinant)): 188 nM
- Kd (Protein A (native)): 75.3 nM

B2: PA#2/8 [A1-58] (ssDNA)
DNA: ATACCAGCTTATTCAATTAGCAACATGAGGGGGATAGAGGGGGTGGGTTCTCTCGGCT
- binding result [1]: binds

B3: PA#2/8 [A19-76] (ssDNA)
DNA: AGCAACATGAGGGGGATAGAGGGGGTGGGTTCTCTCGGCTACAATCGTAATCAGTTAG
- binding result [2]: no binding

Binder: AGCAACATGAGGGGGATAGAGGGGGTGGGTTCTCTCGGCT (ssDNA) [PA#2/8CR40]
- binding result [3]: no binding
